From patent US20110177056A1

Biological target: EGF receptor (ErbB1) on A431 cells (UniProt P00533)
Test: cell-based or functional assay

B1: EGF variant v3 (EGFv3) (ligand)
chain: NSDPKCPLSHEGYCLNDGVCMYIGTLDRYACNCVVGYVGERCQYRDLKLAELR
- pEC50 (phosphoY1068 EGF receptor, MSD electrochemiluminescence, A431 cells): 7.61 pEC50
